Test results taken from patent US20210032673A1.

How the values were obtained:
[1] = biological target: endogenous Arf6 of HEK293T cells (UniProt P62330); assay: cell-based or functional assay
[2] = biological target: calmodulin-sepharose (BioVision) (Homo sapiens (Human)) (UniProt P0DP23); assay: calcium dose-response of luciferase-IQSEC2 binding to calmodulin-sepharose; the number is a calcium concentration, not a protein concentration
[3] = biological target: calmodulin-sepharose (BioVision) (Homo sapiens (Human)) (UniProt P0DP23); assay: luciferase-IQSEC2 cell extract on calmodulin-sepharose, no added calcium (5 mM EGTA, apocalmodulin), 0.1% Triton X-100, n=6
[4] = biological target: calmodulin-sepharose (BioVision) (Homo sapiens (Human)) (UniProt P0DP23); assay: luciferase-IQSEC2 cell extract on calmodulin-sepharose, free calcium greater than 200 nM (calcium-calmodulin), 0.1% Triton X-100, n=11
[5] = biological target: human Calm2 (NM_001743) with C-terminal triple FLAG tag (human) (UniProt P0DP24); assay: Lumier assay in HEK293T cells, renilla luciferase after anti-FLAG pull-down
[6] = biological target: human Calm3 (NM_005184) with C-terminal triple FLAG tag (human) (UniProt P0DP25); assay: as above
[7] = biological target: human Calm1 (NM_006888) with C-terminal triple FLAG tag (human) (UniProt P0DP23); assay: as above
[8] = biological target: GFP-FLAG [GFP: P42212]; assay: Lumier assay in HEK293T cells, negative control interactor GFP-FLAG (background)
[9] = biological target: human Calm2 (NM_001743) with C-terminal triple FLAG tag (human) (UniProt P0DP24); assay: Lumier assay in HEK293T cells, renilla luciferase after pull-down normalized to FLAG ELISA
[10] = biological target: human Calm3 (NM_005184) with C-terminal triple FLAG tag (human) (UniProt P0DP25); assay: as above
[11] = biological target: human Calm1 (NM_006888) with C-terminal triple FLAG tag (human) (UniProt P0DP23); assay: as above

Chain of endogenous Arf6 of HEK293T cells (P62330 2-175 limits assumed): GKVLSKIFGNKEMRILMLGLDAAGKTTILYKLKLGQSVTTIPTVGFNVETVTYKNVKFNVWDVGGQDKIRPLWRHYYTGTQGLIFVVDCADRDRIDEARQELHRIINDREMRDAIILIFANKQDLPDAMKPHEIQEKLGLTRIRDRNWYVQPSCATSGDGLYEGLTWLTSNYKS

| Substance | Arf6 activation (Arf6-GTP, GGA3 pulldown and immunoblot) with ionomycin, fold over sham transfected cells [1] [fold] | Arf6 activation (Arf6-GTP, GGA3 pulldown and immunoblot), fold over sham transfected cells [1] [fold] | free calcium concentration at half-maximal binding [2] [µM] | Arf6-GTP promoted, against wild type IQSEC2 protein [1] [fold] | increase in total Arf6-GTP by ELISA against cells expressing wild type IQSEC2 [1] [%] | total Arf6-GTP by ELISA, equivalent amounts of protein extract of stable HEK293T lines (spectrophotometric units) [1] | luciferase units bound to calmodulin sepharose (luciferase units) [3] | luciferase units bound to calmodulin sepharose (luciferase units) [4] | fold difference of interaction strength, wild type against A350V IQSEC2 [5] [fold] | fold difference of interaction strength, wild type against A350V IQSEC2 [6] [fold] | fold difference of interaction strength, wild type against A350V IQSEC2 [7] [fold] | fold change of interaction strength, wild type against mutant IQSEC2 [8] [fold] | fold higher normalized interaction score, wild type against A350V IQSEC2 [9] [fold] | fold higher normalized interaction score, wild type against A350V IQSEC2 [10] [fold] | fold higher normalized interaction score, wild type against A350V IQSEC2 [11] [fold] |
| --- | --- | --- | --- | --- | --- | --- | --- | --- | --- | --- | --- | --- | --- | --- | --- |
| FLAG-tagged wild type IQSEC2 (pCAGGS) (from UniProt Q5JU85 1-1488) | 8.03 | 3.87 |  |  |  |  |  |  |  |  |  |  |  |  |  |
| renilla luciferase-HAx3-A350V IQSEC2 (from UniProt Q5JU85 1-1488) |  |  | 1 | 30 | 25 | 0.075 | 48 | 594 |  |  |  |  |  |  |  |
| renilla luciferase-HAx3-wild type IQSEC2 (full length human IQSEC2, pcDNA3.1 Zeo construct) (from UniProt Q5JU85 1-1488) |  |  |  |  |  | 0.06 |  |  | 15 | 36 | 34 | 1.07 | 14 | 31 | 31 |
